According to the nanobody polyreactivity screen of Harvey et al. (2022):

test: yeast display, Sf9 membrane polyspecificity reagent, FACS + sequencing; frameworks hold sequencing errors
Outline: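 In a synthetic yeast display library (Saccharomyces cerevisiae BJ5465), nanobody expression was induced with galactose for 36–48 hours. FACS gates were set low and high (top ~1%) using anti-HA fluorescence for expression and streptavidin fluorescence for binding of the Sf9 membrane reagent. Each polyreactivity label is drawn from the gate of origin.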

| Sequence | polyreactivity (PSR sort gate) |
| --- | --- |
| QVQLVESGGGLVQAGGSLRLSCAASGSIFTGNAMGWYRQAPGKERELVASITTSTDSTYYADSVKGRFTISRDNAKNTVYLQMNSLNPEDTAVYYCAAEYAVAWKYGLYFYFHFDYWGQGTQVTVSS | low polyreactivity |
| QVQLVESGGGLVQAGGSLRLSCAASGSIFTGNTMGWYRQAPGKDRELVATISRRGGSTYYADSVKGRFTITRDNAKYSVYLQMNSLKPEDTAVYYCAARGPYRPPHGDAYYTYGYWGQGTQVTVSS | high polyreactivity |
| QVQLVESGGGLVQAGGSLRLSCAASGSIFTGNTMGWYRQAPGKERELVAAISRRGGRTYYADSVKGRFTISRDNAKNTVYLQMNSLKPEDTAVYYCAALGRDSTPHGYWGQGTQVTVSS | high polyreactivity |
| QVQLVESGGGLVQAGGSLRLSCAASGSIFTGYAMGWYRQAPGKERELVAAIRTRGGSTYYADSVKGRFTISRDNAKNTVYLQMNSLKPEDTAVYYCAKRYYGWYGNFDYWGQGTQVTVSS | high polyreactivity |
| QVQLVESGGGLVQAGGSLRLSCAASGSIFTGYAMGWYRQAPGKERELVAGISWGGTSTYYADSVKGRFTISRDNAKYTVYLQMNSLKPEDTAVYYCSAVRGKYGYLTTPDWFDYWGQGTQVTVSS | high polyreactivity |
| QVQLVESGGGLVQAGGSLRLSCAASGSIFTGYSMGWYRQAPGKERELVAAISNSGTSTYYADSVKGRFTISRDNAKNTVYLQMNCLKPDDTAVYYCNRYHRLRVVPSRYVKYDYWGQGTQVTVSS | low polyreactivity |
| QVQLVESGGGLVQAGGSLRLSCAASGSIFTHNAMGWYRQAPGKVREFVAAISSGGSTNYADSVKGRFTISRDNAKNTVYSQMNSLKPEDTAVYYCAKSIDGWYWRRRRYDYWGQGTQVTVSS | low polyreactivity |
| QVQLVESGGGLVQAGGSLRLSCAASGSIFTKNSMGWYRQAPGKERELVAAISSGGSTYYADSVKGRFTISRDNAKNTVYLQMNSLKPEDTAVYYCARGASFFQKFYYWGQGTQVTVSS | high polyreactivity |
| QVQLVESGGGLVQAGGSLRLSCAASGSIFTLNAMGWYRQAPGKERELVAAIRWSGGSTYYADSVKGRFTISRDNAKNTVYLQMNSLKPEDTAVYYCAAKYPSDYYSRGFNYWGQGTQVTVSS | high polyreactivity |
| QVQLVESGGGLVQAGGSLRLSCAASGSIFTLNAMGWYRQAPGKERELVAAISRSGGSTYYADSVKGRFTISRDNAKNTVYLQLNSLKPEDTAVYYCAVYVTRDSGWWLYDYWGQGTQVTVSS | high polyreactivity |
| QVQLVESGGGLVQAGGSLRLSCAASGSIFTLYTMGWYRQAPGKERELVAGISWRGGRTYYADSVKGRFTISRDNAKNTVYLQMNSLKPEDTAVYYCAAKWTPHIYTLYSWGQGTQVTVSS | high polyreactivity |
| QVQLVESGGGLVQAGGSLRLSCAASGSIFTNAMGWYRQAPGKERELVASIDANAGDTHYADSVKGRFTISRDNAKKTVYLQMNSLKPEDTAVYYCNADVTERLWTGEDDYWGQGTQVTVSS | low polyreactivity |
| QVQLVESGGGLVQAGGSLRLSCAASGSIFTNNAMGRYRQAPGKERELVAGISFRGSSTYADSVKGRFTISRDNAKNTVYLQMNSLKPEDTAVYYCAAEWFDLEDDYWGQGTQVTVSS | low polyreactivity |
| QVQLVESGGGLVQAGGSLRLSCAASGSIFTNNAMGWYRQAPGKETELVAAISWSGGSTYYADSVKGRFTISRDNAKNTVYLQMNSLKPEDTAVYYCAARRWGGPRYKYNYWGQGTQVTVSS | high polyreactivity |
| QVQLVESGGGLVQAGGSLRLSCAASGSIFTPNAMGWYRQAPGKERELVAAISSSSDRTYYADSVKGRFTISRDNAKNTVYLQMNSLKPEDTAVYYCAAYAQKRYYWGQVTQVTVSS | high polyreactivity |
| QVQLVESGGGLVQAGGSLRLSCAASGSIFTPNGRGWYRPAPGKDSELVAAISQSGGSTFYADSVKGRFTMSRDNAKYTVYLQMNSLKPEDSAVYYCATEYYGPVYDLDYDYWGQGSQVTVSS | low polyreactivity |

| Sequence | polyreactivity (PSR sort gate) |
| --- | --- |
| QVQLVESGGGLVQAGGSLRLSCAASGSIFTPNVMGWYRQAPGKERELVAAISQSGGSTFYADSVKGRFTISRDNAKNNVYLQMNSLKPEDTAVYYCAADPFYYFPSPFDYWGQGTQVTVSS | low polyreactivity |
| QVQLVESGGGLVQAGGSLRLSCAASGSIFTPYAMGWYRQAPGKERELVAAISDSVGSTYYADSVKGRFTISRDNAKNTVYLQMNSLKPEDTAVYYCAAEYWVYDSYWFDYDYWGQGTQVTVSS | high polyreactivity |
| QVQLVESGGGLVQAGGSLRLSCAASGSIFTPYAMGWYRQAPGKERELVAAITSGGSTYADSVKGRFTISRDNAKNTVYLQMNSLKPEDTAVYYCAADRSYVYAGADMYYWGQGTQVTVSS | low polyreactivity |
| QVQLVESGGGLVQAGGSLRLSCAASGSIFTPYAMVWYRQAPGKERELVATISWRGGSTYADSVKGRFTISRDNAKNTVYLQMNSLKPEDTAVYYCNKEYTFSLYDYWGQGSQVTVSS | low polyreactivity |
| QVQLVESGGGLVQAGGSLRLSCAASGSIFTRNALGWYRQAPGKETEFVAAISSSGVSTYYADSVKGRFTISRDNAKNTVYLQMNSLKPEDTAVYDCAARWGTKSGRFEYWGQGTQVTVSW | high polyreactivity |
| QVQLVESGGGLVQAGGSLRLSCAASGSIFTRNAMGWYITAPGKEREFVAAISSSGVSTYYADSVKGRLTISRDNAKNTVYLQMNSLKPEDTAVYYCAARWGTKSGRYDYWGQGTQVTVSS | high polyreactivity |
| QVQLVESGGGLVQAGGSLRLSCAASGSIFTRNAMGWYRQAPGKERELVAAISWRGGITNYADSVKGRFTISRDNAKNTVYLQMNSLKPEDTAVYYCNKIRTRGGYGYWGQGTQVTVSS | high polyreactivity |
| QVQLVESGGGLVQAGGSLRLSCAASGSIFTRNTMGWYRQAPGKERELVAAISTSGGDTYYADSVKGRFTISRDNAKNTVYLQMNSLKPEDTAVYFCAVVLVGVYFGYDYWGQGTQVTVSS | high polyreactivity |
| QVQLVESGGGLVQAGGSLRLSCAASGSIFTRYAMGWYRQAPGKERELVADIRTRGGGTYYADSVKGRFTISRDTAKNTVYLQMNSLKPEDTAVYYCAKLWYHVYGSSPYGYWGQGTQVTVSS | high polyreactivity |
| QVQLVESGGGLVQAGGSLRLSCAASGSIFTRYAMGWYRQEPGKERELVAAITTRGSSTYYADSVKGRFTISRDYAKNTVYLQMNSLKPEDTAVYYCATVVRLYRGRYRYDYWGQGTQVTVSS | high polyreactivity |
| QVQLVESGGGLVQAGGSLRLSCAASGSIFTSYAMGWYRHAPGKERELVAAITSTGGSTYYADSVKGRFTISRDNAKNTVYLQMNSLKPEDTAVYYCNADGGTPYDYWGQGTQVTVSS | low polyreactivity |
| QVQLVESGGGLVQAGGSLRLSCAASGSIFTSYAMGWYRQAPGKERELVAGISWSVGGITYYADSVKGRFTISRDNAKNTVYLQMNSLKPEDTAVYYCAADPEGGLGTIPEDYWGQGTQVTVSS | low polyreactivity |
| QVQLVESGGGLVQAGGSLRLSCAASGSIFTTYAMGWYRQAPGKERELVAAISSTSGSTYYADSVKGRFTISGDNAKNTVYLQMTSLKPEDTAVYYCAARGGYWGQGTQVTVSS | low polyreactivity |
| QVQLVESGGGLVQAGGSLRLSCAASGSIFTVYAMGWYRPAPGTERELVARISSGAGTTYADSVKGRFTISRDNAKNTVYVQMKSLTPEDTAVYYCAAYTWDTDHYWYGYVPYDYWGQGTQVSVSS | low polyreactivity |
| QVQLVESGGGLVQAGGSLRLSCAASGSIFTVYAMGWYRQAPGKERELVAAISRRGGSTYYADSVKGRFTISRDNAKNTVYLQMNSLKPEDTAVYYCAALERTLDNKYQFGYWGQGTEVTVSS | high polyreactivity |
